Read-outs that look alike come from different tables or passages of the source.

For data set [1], the target named is T1, TubR (Clostridium botulinum prophage c-st, UniProt Q331T6 1-81).
T1 sequence: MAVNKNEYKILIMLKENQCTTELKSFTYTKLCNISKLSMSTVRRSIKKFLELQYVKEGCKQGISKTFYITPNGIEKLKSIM
The data set is described as follows: EMSA. In general terms: Mobility shift assays separate free from complexed probe on a gel.

Data set [2] has as its target T1, TubR. The data set can be described thus: EMSA. This is another data set of the same source.
The target of data set [3] is T1, TubR. The data set can be described thus: fluorescence anisotropy. In general terms: Fluorescence polarisation rises when a labelled molecule tumbles more slowly, as on binding a larger partner.
In data set [4] the target is T1, TubR. The data set can be described thus: fluorescence anisotropy. This is another data set of the same source.

B1: CP1 (dsDNA)
DNA 1: TATAGTAAAGAAAGAAATAAACATGATATGAACATATATTGACTACAGTTTGACATAGTTTTGACTATGATATGAACAAAATAAGAATGTATTA
DNA 2: TAATACATTCTTATTTTGTTCATATCATAGTCAAAACTATGTCAAACTGTAGTCAATATATGTTCATATCATGTTTATTTCTTTCTTTACTATA
Consider B1, for which the binding result with TubR [1] is listed as “binds”.

B2: SF1 (dsDNA)
DNA 1: TAAGGAATATAGTATAATATAGTAAAGAAAGAAATAAACATGATATGAACATATATTGACTACAGTTTGACATAGTTTTGACTATGATATGAACAAAATAAGAATGTATTATGAATATTTTCTTACATTACTGCGACTACTATCAG
DNA 2: CTGATAGTAGTCGCAGTAATGTAAGAAAATATTCATAATACATTCTTATTTTGTTCATATCATAGTCAAAACTATGTCAAACTGTAGTCAATATATGTTCATATCATGTTTATTTCTTTCTTTACTATATTATACTATATTCCTTA
For B2, in the data set with TubR [2], the binding result is “binds”.

B3: Shuffle DNA (dsDNA)
DNA 1: AATCGTAAAATATTACAATATAAGGTAACAAGATATTCCTTTTTGGAGCAT
DNA 2: ATGCTCCAAAAAGGAATATCTTGTTACCTTATATTGTAATATTTTACGATT
As to B3, the binding result with TubR [2] is listed as “no binding”.

B4: SF3b (dsDNA)
DNA 1: TGAACATATAGTGAACATAATACAACTAGTACAAGAATGTAGTTTGACTAT
DNA 2: ATAGTCAAACTACATTCTTGTACTAGTTGTATTATGTTCACTATATGTTCA
Turning to B4, in the data set with TubR [3], the “apparent K (half saturation)” value was determined as 138 ± 7.7 nM.

B5: SF2 (dsDNA)
DNA 1: AGAATATACTTTGAATATAATTAGACTTAAACAAGATTACTTTTAGACTATAGTATAAATATAATTAGAAAATAATTTGAATAATTTATGAAAATAAGTACACATTTTCTAAGGAATATAGTATAATATAGTAAAGAAAGA
DNA 2: TCTTTCTTTACTATATTATACTATATTCCTTAGAAAATGTGTACTTATTTTCATAAATTATTCAAATTATTTTCTAATTATATTTATACTATAGTCTAAAAGTAATCTTGTTTAAGTCTAATTATATTCAAAGTATATTCT
As to B5, the binding result with TubR [2] was “binds”.

B6: SF3 (dsDNA)
DNA 1: GTTAATTGTAGCGTTAAGTGAGACATAGAATTGAACATATAGTGAACATAATACAACTAGTACAAGAATGTAGTTTGACTATAATTTGAACATATTTAGAATATACTTTGAATATAATTAGACTTAAACAAG
DNA 2: CTTGTTTAAGTCTAATTATATTCAAAGTATATTCTAAATATGTTCAAATTATAGTCAAACTACATTCTTGTACTAGTTGTATTATGTTCACTATATGTTCAATTCTATGTCTCACTTAACGCTACAATTAAC
For the molecule B6, the binding result in the data set with TubR [2] is “binds”.

B7: SF1b (dsDNA)
DNA 1: AAATAAACATGATATGAACATATATTGACTACAGTTTGACATAGTTTTGAC
DNA 2: GTCAAAACTATGTCAAACTGTAGTCAATATATGTTCATATCATGTTTATTT
For B7, the “apparent K (half saturation)” value in the data set with TubR [4] came out at 184 ± 4.04 nM.

Source of the values: paper PMC6009700.
